Ends that are not written are not given here. * marks the point of attachment. Biotin = O=C1N[C@H]2[C@H](CS[C@H]2CCCCC(=O)*)N1
Columns and labels:
[1] = molecular target: RyR1 purified from rabbit skeletal muscle (rabbit) (UniProt P11716)
[2] = molecular target: RyR1 purified from rabbit skeletal muscle (rabbit) (UniProt P11716); remark: listed apart in the source
[3] = molecular target: T1, full length recombinant mouse RyR2 (mouse, UniProt E9Q401 1-4966); experiment: pull-down; NeutrAvidin–agarose affinity chromatography: biotinylated Njun or scrambled Njun on the agarose, recombinant RyR or RyR1 fragments (isolated from HEK293) incubated overnight at 4°C in PBS plus 0.1% SDS; RyR detected with 34C or anti-GFP antibody; conditions: both partners purified
T1 construct: ryanodine receptor 2 (RyR2), mouse, recombinant; Cell line of Koop et al., 2008; also called recombinant RyR2

[4] = molecular target: T2, RyR1 purified from rabbit skeletal muscle (rabbit, UniProt P11716 1-5037); experiment: cell-based or functional assay
[5] = molecular target: T2, RyR1 purified from rabbit skeletal …; experiment: pull-down; affinity chromatography: biotinylated canine KEKE peptide on streptavidin–agarose, purified RyR1 or RyR2; conditions: both partners purified

T2 sequence (P11716 whole entry): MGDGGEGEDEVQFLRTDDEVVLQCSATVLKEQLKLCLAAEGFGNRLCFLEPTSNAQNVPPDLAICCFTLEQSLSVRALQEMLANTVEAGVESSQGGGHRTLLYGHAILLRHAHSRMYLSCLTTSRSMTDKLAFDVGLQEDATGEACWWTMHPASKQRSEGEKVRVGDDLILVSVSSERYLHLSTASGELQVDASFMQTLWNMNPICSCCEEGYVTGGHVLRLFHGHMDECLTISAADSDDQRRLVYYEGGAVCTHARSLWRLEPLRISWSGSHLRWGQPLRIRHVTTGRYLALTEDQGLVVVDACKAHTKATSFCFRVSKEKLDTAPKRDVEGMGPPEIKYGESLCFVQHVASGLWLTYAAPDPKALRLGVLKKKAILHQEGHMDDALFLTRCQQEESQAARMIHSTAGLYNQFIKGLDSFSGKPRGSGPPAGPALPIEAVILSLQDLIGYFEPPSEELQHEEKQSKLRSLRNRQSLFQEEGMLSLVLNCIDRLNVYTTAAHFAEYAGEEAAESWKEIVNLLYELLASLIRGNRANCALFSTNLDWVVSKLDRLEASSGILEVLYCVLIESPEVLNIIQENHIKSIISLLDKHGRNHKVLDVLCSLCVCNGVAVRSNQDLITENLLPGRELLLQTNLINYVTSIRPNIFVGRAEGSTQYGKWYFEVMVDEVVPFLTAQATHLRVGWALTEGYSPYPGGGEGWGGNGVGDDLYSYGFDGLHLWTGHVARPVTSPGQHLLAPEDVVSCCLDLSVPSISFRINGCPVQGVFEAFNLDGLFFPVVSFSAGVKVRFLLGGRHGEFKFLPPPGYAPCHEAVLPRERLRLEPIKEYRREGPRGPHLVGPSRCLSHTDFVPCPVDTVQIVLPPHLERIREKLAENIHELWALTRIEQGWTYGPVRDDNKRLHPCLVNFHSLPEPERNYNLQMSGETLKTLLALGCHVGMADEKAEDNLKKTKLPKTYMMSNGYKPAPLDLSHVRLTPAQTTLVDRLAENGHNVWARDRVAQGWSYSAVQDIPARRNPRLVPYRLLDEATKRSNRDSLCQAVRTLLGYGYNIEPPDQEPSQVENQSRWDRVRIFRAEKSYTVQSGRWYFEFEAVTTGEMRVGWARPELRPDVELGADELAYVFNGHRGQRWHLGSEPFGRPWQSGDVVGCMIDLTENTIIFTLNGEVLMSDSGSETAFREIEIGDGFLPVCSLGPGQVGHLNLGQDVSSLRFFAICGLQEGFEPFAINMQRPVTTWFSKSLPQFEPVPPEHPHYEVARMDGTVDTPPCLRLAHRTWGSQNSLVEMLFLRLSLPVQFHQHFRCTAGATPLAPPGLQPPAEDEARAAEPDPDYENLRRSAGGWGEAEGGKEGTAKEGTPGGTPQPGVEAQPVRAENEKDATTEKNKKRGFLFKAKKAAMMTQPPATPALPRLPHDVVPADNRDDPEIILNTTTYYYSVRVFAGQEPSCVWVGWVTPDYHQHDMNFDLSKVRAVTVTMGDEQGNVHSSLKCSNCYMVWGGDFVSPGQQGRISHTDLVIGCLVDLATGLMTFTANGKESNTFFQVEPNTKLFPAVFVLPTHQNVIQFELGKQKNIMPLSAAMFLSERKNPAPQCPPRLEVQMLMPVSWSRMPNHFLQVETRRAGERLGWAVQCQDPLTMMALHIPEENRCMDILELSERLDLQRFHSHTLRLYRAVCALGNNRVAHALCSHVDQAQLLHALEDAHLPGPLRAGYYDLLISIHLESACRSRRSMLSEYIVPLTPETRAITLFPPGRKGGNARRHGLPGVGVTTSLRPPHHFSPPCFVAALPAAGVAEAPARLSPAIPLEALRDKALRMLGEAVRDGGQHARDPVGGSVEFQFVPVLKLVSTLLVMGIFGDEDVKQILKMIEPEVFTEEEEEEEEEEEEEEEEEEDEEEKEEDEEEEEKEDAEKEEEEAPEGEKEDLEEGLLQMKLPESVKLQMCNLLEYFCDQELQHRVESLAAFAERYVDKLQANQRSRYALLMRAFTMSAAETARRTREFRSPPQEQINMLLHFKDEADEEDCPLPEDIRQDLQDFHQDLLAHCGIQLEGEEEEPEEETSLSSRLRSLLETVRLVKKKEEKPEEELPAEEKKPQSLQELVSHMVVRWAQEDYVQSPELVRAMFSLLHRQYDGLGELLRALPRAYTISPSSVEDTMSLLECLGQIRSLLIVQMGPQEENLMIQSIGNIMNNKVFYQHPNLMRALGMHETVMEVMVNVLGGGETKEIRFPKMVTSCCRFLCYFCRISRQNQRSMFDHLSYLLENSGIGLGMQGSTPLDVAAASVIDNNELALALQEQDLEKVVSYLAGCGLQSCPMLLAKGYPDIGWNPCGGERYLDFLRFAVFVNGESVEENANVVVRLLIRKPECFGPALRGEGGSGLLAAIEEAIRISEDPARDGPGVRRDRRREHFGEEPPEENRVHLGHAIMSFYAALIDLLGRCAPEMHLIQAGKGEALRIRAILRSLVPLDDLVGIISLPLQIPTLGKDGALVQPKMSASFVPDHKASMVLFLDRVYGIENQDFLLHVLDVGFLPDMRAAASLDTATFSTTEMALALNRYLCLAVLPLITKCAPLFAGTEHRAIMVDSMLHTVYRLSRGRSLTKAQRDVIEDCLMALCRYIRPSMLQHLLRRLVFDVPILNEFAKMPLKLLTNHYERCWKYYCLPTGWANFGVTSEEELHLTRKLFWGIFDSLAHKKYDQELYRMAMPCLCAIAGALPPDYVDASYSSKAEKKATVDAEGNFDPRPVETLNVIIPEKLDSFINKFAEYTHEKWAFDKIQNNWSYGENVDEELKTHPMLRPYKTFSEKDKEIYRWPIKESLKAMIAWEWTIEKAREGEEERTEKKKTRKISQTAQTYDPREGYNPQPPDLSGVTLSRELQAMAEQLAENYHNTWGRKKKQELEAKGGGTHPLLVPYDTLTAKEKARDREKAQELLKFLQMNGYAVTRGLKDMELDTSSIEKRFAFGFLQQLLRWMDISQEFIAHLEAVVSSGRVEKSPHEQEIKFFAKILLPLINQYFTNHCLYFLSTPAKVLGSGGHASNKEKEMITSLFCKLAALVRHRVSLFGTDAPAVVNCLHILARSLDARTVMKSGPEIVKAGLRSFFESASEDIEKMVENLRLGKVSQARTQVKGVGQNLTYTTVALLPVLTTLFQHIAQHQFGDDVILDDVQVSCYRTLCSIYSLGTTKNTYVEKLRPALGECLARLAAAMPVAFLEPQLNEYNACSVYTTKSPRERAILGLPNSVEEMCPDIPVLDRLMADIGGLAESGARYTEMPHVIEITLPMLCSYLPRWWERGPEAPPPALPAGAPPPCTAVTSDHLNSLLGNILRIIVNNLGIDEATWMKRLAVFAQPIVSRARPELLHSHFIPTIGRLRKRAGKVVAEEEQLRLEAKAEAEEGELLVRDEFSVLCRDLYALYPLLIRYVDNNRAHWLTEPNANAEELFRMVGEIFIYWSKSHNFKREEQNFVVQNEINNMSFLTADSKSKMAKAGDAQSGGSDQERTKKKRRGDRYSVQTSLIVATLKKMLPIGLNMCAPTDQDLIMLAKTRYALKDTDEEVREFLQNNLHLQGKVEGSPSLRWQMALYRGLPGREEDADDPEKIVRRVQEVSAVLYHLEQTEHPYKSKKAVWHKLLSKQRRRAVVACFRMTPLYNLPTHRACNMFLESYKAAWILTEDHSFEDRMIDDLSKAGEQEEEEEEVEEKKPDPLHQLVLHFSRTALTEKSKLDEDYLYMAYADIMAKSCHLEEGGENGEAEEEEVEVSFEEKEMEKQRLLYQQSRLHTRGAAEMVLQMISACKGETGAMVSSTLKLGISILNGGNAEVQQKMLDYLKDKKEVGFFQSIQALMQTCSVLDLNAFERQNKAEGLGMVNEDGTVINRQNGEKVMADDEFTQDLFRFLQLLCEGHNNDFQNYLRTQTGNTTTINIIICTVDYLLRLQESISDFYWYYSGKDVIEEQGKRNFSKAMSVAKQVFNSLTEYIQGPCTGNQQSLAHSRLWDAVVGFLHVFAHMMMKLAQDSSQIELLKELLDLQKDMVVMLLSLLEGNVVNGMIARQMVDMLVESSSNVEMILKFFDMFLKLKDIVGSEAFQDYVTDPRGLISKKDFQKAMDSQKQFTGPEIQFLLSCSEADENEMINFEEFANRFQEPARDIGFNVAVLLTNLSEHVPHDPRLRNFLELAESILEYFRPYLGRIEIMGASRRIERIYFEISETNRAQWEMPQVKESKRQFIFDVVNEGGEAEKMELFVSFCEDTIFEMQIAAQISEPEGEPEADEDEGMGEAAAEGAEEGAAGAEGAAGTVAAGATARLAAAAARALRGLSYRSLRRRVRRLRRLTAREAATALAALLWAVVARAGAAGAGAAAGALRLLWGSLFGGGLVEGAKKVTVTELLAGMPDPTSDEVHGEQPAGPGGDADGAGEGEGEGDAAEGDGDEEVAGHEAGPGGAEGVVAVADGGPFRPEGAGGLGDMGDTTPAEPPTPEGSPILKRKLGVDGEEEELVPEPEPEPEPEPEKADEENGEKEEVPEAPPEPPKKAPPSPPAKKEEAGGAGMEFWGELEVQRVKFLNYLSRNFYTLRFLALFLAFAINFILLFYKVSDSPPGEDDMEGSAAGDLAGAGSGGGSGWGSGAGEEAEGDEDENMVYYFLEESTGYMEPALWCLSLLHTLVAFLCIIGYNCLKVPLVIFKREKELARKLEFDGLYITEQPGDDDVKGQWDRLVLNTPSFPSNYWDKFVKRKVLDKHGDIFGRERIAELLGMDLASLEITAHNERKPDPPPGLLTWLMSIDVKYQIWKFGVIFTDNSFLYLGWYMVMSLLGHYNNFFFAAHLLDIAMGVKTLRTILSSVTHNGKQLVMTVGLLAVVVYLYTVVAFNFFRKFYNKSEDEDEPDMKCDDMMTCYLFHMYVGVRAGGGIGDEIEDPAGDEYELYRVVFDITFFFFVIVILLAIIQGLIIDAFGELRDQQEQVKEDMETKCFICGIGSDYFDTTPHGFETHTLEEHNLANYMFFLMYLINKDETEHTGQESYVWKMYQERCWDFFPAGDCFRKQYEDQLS
Sequence of RyR1 purified from rabbit skeletal muscle (rabbit) (P11716 whole entry, the tested form may be a part): as the sequence (P11716 whole entry) above

Q: With “C-terminal domain of canine junctin (amino acids 46–210), His6-tagged (domain or fragment)” as the molecule, how does the open probability (Po) of purified RyR1 channels in lipid bilayers, 213 nM Cjun in the luminal solution, relative to control [1] read?
A: The open probability (Po) of purified RyR1 channels in lipid bilayers, 213 nM Cjun in the luminal solution, relative to control was 0.68 of control.

Q: For “full-length junctin isolated from rabbit skeletal muscle (natural protein)”, which open probability of purified RyR1 channels in lipid bilayers, 213 nM FLjun in the luminal solution, increase over control [2] is on record?
A: The open probability of purified RyR1 channels in lipid bilayers, 213 nM FLjun in the luminal solution, increase over control was 1.9 fold.

B1: Njun peptide, N-terminal cytoplasmic domain of junctin (residues 1–22), biotinylated (peptide)
peptide: Biotin-MAEETKHGGHKNGRKGGLSQSS
notes: junctin, N-terminal cytoplasmic domain, residues 1-22; also called biotinylated Njun; junctin cytoplasmic domain; source: synthetic peptide
Q: Does B1 bind [3]?
A: Result: binds

Q: And the “open probability of purified RyR1 channels in lipid bilayers, 213 nM Njun in the cytoplasmic solution, increase over control” value [4]?
A: Its value is 5 fold.

B2: Cjun KEKE motif peptide (canine), residues 84–105, biotinylated (peptide)
peptide: Biotin-KRKTKAKVKELTKEELKKEKEK
notes: junctin, canine, KEKE motif, residues 84-105; also called canine KEKE peptide; KEKE peptide; source: synthetic peptide
Q: Does B2 bind [5]?
A: Result: binds

From paper PMC4342579, “A new cytoplasmic interaction between junctin and ryanodine receptor Ca^2+ release channels” (Journal of Cell Science, 2015)
